Measurements reported in PMC3278529 (Free radical biology & medicine, 2011).
The star is where a group is joined. Biotin = O=C1N[C@H]2[C@H](CS[C@H]2CCCCC(=O)*)N1

T1: C378A-p47^phox (human, UniProt P14598 1-390, C378A)
T1 sequence (looked up): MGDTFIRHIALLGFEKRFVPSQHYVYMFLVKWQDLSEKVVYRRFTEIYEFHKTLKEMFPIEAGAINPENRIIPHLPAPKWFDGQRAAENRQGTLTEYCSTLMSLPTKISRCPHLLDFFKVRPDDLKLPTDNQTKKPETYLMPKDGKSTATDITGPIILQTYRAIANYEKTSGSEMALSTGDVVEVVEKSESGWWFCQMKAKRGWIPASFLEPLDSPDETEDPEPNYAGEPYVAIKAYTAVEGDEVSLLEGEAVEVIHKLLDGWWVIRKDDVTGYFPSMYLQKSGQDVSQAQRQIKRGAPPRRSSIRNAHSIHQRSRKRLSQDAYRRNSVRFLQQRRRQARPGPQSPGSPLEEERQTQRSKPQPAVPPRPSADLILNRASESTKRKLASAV

T2: C111A-p47^phox (human, UniProt P14598 1-390, C111A)
T2 sequence (looked up): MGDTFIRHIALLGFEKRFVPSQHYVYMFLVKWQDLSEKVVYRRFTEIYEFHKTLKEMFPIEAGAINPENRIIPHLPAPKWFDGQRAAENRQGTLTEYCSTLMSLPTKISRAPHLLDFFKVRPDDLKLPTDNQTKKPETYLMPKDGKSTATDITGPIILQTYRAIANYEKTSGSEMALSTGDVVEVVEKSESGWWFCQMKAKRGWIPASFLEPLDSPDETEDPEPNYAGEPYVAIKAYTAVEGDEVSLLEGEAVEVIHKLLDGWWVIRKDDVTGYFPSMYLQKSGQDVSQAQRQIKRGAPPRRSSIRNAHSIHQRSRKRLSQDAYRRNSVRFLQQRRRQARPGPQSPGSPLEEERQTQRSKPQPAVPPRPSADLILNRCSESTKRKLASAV

T3: C98G-p47^phox (human, UniProt P14598 1-390, C98G)
T3 sequence (looked up): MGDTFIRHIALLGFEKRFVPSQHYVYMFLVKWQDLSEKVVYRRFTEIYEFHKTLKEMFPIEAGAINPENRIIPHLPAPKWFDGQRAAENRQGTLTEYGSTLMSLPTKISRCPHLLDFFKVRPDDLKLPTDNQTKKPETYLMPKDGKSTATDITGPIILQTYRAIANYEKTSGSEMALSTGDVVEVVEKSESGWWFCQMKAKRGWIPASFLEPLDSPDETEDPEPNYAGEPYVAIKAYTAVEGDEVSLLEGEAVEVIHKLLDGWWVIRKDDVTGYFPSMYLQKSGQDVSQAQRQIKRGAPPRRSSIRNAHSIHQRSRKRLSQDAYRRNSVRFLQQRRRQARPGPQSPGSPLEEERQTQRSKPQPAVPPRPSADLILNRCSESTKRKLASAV

T4: C196A-p47^phox (human, UniProt P14598 1-390, C196A)
T4 sequence (looked up): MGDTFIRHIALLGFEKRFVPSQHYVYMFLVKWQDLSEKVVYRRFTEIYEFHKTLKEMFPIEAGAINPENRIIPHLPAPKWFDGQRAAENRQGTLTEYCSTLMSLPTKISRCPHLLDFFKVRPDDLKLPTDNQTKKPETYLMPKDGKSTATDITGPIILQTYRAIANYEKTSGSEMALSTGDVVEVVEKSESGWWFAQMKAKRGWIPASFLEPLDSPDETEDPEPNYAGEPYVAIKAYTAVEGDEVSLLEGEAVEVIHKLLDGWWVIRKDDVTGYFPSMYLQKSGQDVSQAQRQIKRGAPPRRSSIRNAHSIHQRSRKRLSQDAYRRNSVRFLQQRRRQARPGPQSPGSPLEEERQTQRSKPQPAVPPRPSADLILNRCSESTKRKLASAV

T5: His-p47^phox wild type (human, UniProt P14598 1-390)
T5 sequence (looked up): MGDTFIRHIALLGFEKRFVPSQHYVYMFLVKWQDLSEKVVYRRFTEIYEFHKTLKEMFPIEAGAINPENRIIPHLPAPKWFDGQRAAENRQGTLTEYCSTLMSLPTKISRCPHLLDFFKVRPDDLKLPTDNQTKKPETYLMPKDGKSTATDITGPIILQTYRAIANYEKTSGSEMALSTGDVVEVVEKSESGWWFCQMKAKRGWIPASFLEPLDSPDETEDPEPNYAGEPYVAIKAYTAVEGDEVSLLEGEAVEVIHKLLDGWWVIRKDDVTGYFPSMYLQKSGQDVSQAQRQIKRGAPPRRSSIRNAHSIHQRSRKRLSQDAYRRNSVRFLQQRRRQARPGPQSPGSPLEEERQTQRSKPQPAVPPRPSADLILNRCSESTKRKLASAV


Assays:
[1] = target: p47^phox (Homo sapiens, UniProt P14598); assay: ELISA of p47phox-p22phox peptide interaction; type: binding
[2] = target: T1, C378A-p47^phox; assay: ELISA
[3] = target: T2, C111A-p47^phox; assay: ELISA
[4] = target: T3, C98G-p47^phox; assay: ELISA
[5] = target: T4, C196A-p47^phox; assay: ELISA
[6] = target: T5, His-p47^phox wild type; assay: ELISA

Sequence of p47^phox (P13498 2-195, one chain of several): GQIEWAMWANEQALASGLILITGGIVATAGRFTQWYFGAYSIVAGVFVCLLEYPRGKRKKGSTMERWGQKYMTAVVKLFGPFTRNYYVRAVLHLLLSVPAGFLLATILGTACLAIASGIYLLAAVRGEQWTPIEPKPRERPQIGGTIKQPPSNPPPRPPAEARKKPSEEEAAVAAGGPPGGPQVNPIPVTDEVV

binding result [2] | binding result [3] | binding result [4] | binding result [5] | binding result [6] | Molecule | IC50 [1] [µM]
 |  |  |  |  | O=C1C=CC(=O)c2ccccc21 [1,4-naphthoquinone] | 0.7
binds | binds | binds | binds | binds | Biotin-SGSGPPSNPPPRPPAEARK-NH2 (SMILES C[C@H](NC(=O)[C@H](CCC(=O)O)NC(=O)[C@H](C)NC(=O)[C@@H]1CCCN1C(=O)[C@@H]1CCCN1C(=O)[C@H](CCCNC(=N)N)NC(=O)[C@@H]1CCCN1C(=O)[C@@H]1CCCN1C(=O)[C@@H]1CCCN1C(=O)[C@H](CC(N)=O)NC(=O)[C@H](CO)NC(=O)[C@@H]1CCCN1C(=O)[C@@H]1CCCN1C(=O)CNC(=O)[C@H](CO)NC(=O)CNC(=O)[C@H](CO)NC(=O)CCCC[C@@H]1SC[C@@H]2NC(=O)N[C@@H]21)C(=O)N[C@@H](CCCNC(=N)N)C(=O)N[C@@H](CCCCN)C(N)=O) [proline-rich p22^phox peptide (biotin-p22^phox)] | 
